Values quoted from earlier work as cited in publication PMC8512968.

Molecular target: band 3 cytoplasmic domain (Homo sapiens) (UniProt P02730)
Assay: sedimentation equilibrium AUC

Kd: 2.8 µM
Substance: band 3 cytoplasmic domain (from UniProt P02730)
